Consider 21 variants from the RNAGym collection of RNA variant scans (doi:10.1073/pnas.2313332121).

B1: TPR t1 (parent)
chain: GACCAAUCUGCCCUCAGAGCUCGAGAACAUCUUCGGAUGCAGAGGAGGCAGGCUUCGGUGGCGCGAUAGCGCCAACGUCCUCAACCUCCAAUGCAUCCCACCACAUGAUGAUGCCUGAAGAGCCUUGGUUUUUUG

Variants of B1 are the subject of the series. The experiment in a line: polymerase ribozyme fitness, log enrichment relative to wild type (log ratio); higher = more active; in vitro selection for triplet polymerase activity. A digest of the protocol:
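Mutant libraries of both subunits of a heterodimeric triplet polymerase ribozyme were PCR-built, transcribed, and selected once in triplicate, with frozen incubation at −7 °C and capture of gel-excised extended constructs on streptavidin beads before RT-PCR. Illumina sequencing of input and output libraries was filtered to genotypes with ≥10 input reads and ≥1 read per output. Fitness is the logarithm of genotype enrichment over wild-type enrichment, using inverse-variance-weighted replicate averages. The logarithm is base 2.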
GACCAGUCUGCCCUCAGAGCUCGAGAACCUCUUCGGAUGCAGAGUAGGCAGGCUUCGGUGGCGCGAUAGCGCCAACGUCCUCAACCUCCAAUGCAUCCCACAACAUGAUGAUGCCUGAAGAGCUUUGGUUUUUUG: the “polymerase ribozyme fitness (log ratio)” value is -5.32.

With GACCACUCAGCCCUCAGAGCUCGAGAACAUCUUCGGAUGCAGAGGAGGCAGACUUCGGUGGCGCGAUGGCGCCAACGUCCUCAACCUCCAAUGCAUCCCACCACAAGAUGAUGCCUGAAGAGCCUUGGUUUUUUG, the “polymerase ribozyme fitness (log ratio)” value was -2.55.

As for GACCAGUCUGCCCUCAGAGCUCGGGAACAUCUUCGGAUGCAGAGGAGGCAGGCUUCGGUGGCGCGAUAGCGCAAACGUCCUCAACCUCCAAUGCAUCCCACCACAUGAUGAUGCCUGAAGAGCCUUGGUUUUUUG, the “polymerase ribozyme fitness (log ratio)” value was -1.35.

GACCAGUCUGCCCUCAGAGCUCGAGAACAUCUUCGGAUGCCGAGGAGGCAGGCUUAGGUGGCGCGAUAGCGCCAACGUCCUCAACCUCCAAUUCAUCCCACCACAUGAUGAUGCCUCAAGAGCCUUGGUUUUUUG: the “polymerase ribozyme fitness (log ratio)” value was -4.14.

As for GACCACUCUGCCCUCAGAGCUCGAGAACAUCUUCGGAUGCAGAGGAGGCAGGCUUCGGUGGCGCGAUAUCGCCAAGGUCCUCAAGCUCCAAUGCAUCCCACCACAUGAUGAUGCCUGAAUAGCCUUGGUUUUUUG, the “polymerase ribozyme fitness (log ratio)” value was -1.75.

Consider GACCACUCUGCCCUCAGAGCUCGAGAACAUCUUCGGAUGCAGAGGAGGCAGGCUUCGGUGGCUCGAUAGCGCCAACGUCCUCAACCUCCAAUGCAUCCCACCACAUGAUGAUGCACGAAGAGCCUUGGUUUUUUG, for which the “polymerase ribozyme fitness (log ratio)” value was -4.89.

For GACCACUCUGCCCUCAGAGCUCGAGAACAUCUUCGGAUGCAGAGGAGGCAGGCUUCGGUGGCGCGAUAGCGCCAACGCCCUCAACCUCCAAUGCAUCCCACCACAUGAUGAUGCCUGAAGAGCCUUGGUUUUUUG, the “polymerase ribozyme fitness (log ratio)” value was -0.721.

As to GACCACGCUGCCCUCAGAGCUCGAGAACGUCUUCGGAUGCAGAGGAGCCAGGCUUCGGUGGCGCGAUAGCGCCAACGUCCUCAACCUCCAAUGCCUCCCACCACAUGAUGAUGCCUGAAGAGCCUUGGUUUUUUG, the “polymerase ribozyme fitness (log ratio)” value is -3.37.

As to GACCAGUCUGCCCUCAGAGCUCGAGAACAUCUUCGGAUGCCGAGGAGGCAGGCUUCGGUGGCGCGAUAGCGCCAAUGUCCUCAACCUCCAAUGCAUCCCACCACAUGAUGAUGCUUGAAGAGCCUUGGUAUUAUG, the “polymerase ribozyme fitness (log ratio)” value was -2.77.

For the variant GACCACCCUGCCCUCAGAGCUCGAGAACAUCUUCGGAUGCAGAGGAGGCAGGCUUUGGUGGCGCGAUAGCGCCAACGUCCUCAACCUCCAGUGCAUCCCACCACAGGAUGAUGCCUGAAUAGCCUUGGUUUUUUG, the “polymerase ribozyme fitness (log ratio)” value is -4.11.

On to GACCACUCCGCCCUCAGAGCUCGAGAACAUCUUCGGAUGCAGAGGCGGCAGGCUUCGGUGAUGCGAUAGCGCCAACGUCCUUAACCUCCAAUGCAUCCCACCACAUGAUGAUGCCUGAAGAGCCUUGGUUUUUUG, for which the “polymerase ribozyme fitness (log ratio)” value was -3.08.

Take GACCACUCUGCCCUCAGAGCUCGAGAACAUCUUCGGAAGCAGAGGAGGCAGGCUUCGGUGGCGCGAUAGCGCCAACGUCCUCAACCUCCAAUGCAUCCCACCACAUGAUGAUGCAUGAAGAGCCUUGGUUUUUUG: the “polymerase ribozyme fitness (log ratio)” value was -1.35.

On to GACCACUCUGCCCUCAGAGCUCGAGAACAUCAUCGGAUGCAGAGGAGGCAGGCUUCGGUGGCGUGAUAGCGCCAACGUCCUCAACCUCCAAUGCAUCCCACCACAUGAUGGUGCCUGAAGAGCCUUGGUUUUUUG, for which the “polymerase ribozyme fitness (log ratio)” value is -4.1.

In the case of GACCACUCUGCCCUCAGAGCUCGAGAACAUCUUCGGAUGCAGAGGAGGCAGGCUUCGGUGGCACGAUAGCGCCAACGUCCUCAACCUCCAAUGCAUCCCACCACAUGAUGAUGCCUGAAGAGCCUUGGUUUUUUG, the “polymerase ribozyme fitness (log ratio)” value is -0.611.

With GACCACUCCGCCUUCAAAGCUCGAGAACAUCUUCGGAUGCAGAGGAGGCAGGCUUCGAUGGCGCGAUAGCGCCAACGUCCUCAACCUCCAAUGCAUCCCACCACAUGAUGAUGCCUGAAGGGCCUUGGUUUUUUG, the “polymerase ribozyme fitness (log ratio)” value was 0.229.

Consider GACCACUCUGCCCGCAGAGCUCGAGAACAUCUUCGGAUGCAGAGGAGGCAGGCUUCGGUGGCGCGAUAGCGCCAACGUCCUCAACCUCCAAUGUAUCCCAGCACAUGAUGAUGCCUGAAGAGCCUUGGUUUUUUG, for which the “polymerase ribozyme fitness (log ratio)” value is -4.26.

As to GACCAGUCUGCCCUCAGAGCUCGAGAACAUCUUCGGAUGCAGAGGUGUCAGGCUUCGGUGGCGCGAUAGCGCCAACGUCCUCAACCUCCAAUGCAUCCCAUCACAUGAUGAUGCCCGAAGAUCCUUGGUUUUUUG, the “polymerase ribozyme fitness (log ratio)” value was -5.6.

For the variant GACCACCCUGCCCUCAGAGCUCGAGAACAUCUUCGGAUGCAGAGGAGGCAGGCUUCGGUGGCGCGAUAGCGCCAACGUCCUCAACCUCCAAUGCAUCCCACCACAUGAUGAUGCCUGAAGAGCCUUGGUUUUUUG, the “polymerase ribozyme fitness (log ratio)” value is -0.0861.

For GACCAGUCUGCCCUCAGAGCUCGAGAACAUCUUCGGUUGCAGAGGAGGCAGGCUUGGGUGGCGCGAUAGCGCCAACGUCCUCAACCUCCAAUGCAUCCCACCACAUGAUGAUGCCUGAAGAGCCUUGGUUUUUUG, the “polymerase ribozyme fitness (log ratio)” value is -1.11.

Take GACCAGUCUGCCCUCAGAGCUCGAGAACAUCUUCGGAUGCUGAGGAGGCAGGCUUCGGUGGCGCGAUAGCGCCAACGUCCUCAAGCUCCAAUGCAUCCCACCACAUGAUGAUGCCUGAUGAGCCGUGGUUUUUUG: the “polymerase ribozyme fitness (log ratio)” value is -6.15.

With GACCAGUCUGCCCUCAGAGCUCGAGAACAUCUUCGGAUGCAGAGGCGUCAGUCUUCGGUGGCGCGAUAGCGCCAACGUCCUCAACCUCCAAUGCCUCCCACCACAUGAUGAUGCCUGAAGAGCCUUGGUUUUUUG, the “polymerase ribozyme fitness (log ratio)” value is -5.42.
